Data taken from doi:10.1101/2021.10.11.463889.
pKd: −log10 of the molar value.

Target: GST-tagged proline-rich domain (PRD) of Dyn2 (human)
Assay: pull-down

Chain of GST-tagged proline-rich domain (PRD) of Dyn2 (human) (P50570 whole entry, the tested form may be a part): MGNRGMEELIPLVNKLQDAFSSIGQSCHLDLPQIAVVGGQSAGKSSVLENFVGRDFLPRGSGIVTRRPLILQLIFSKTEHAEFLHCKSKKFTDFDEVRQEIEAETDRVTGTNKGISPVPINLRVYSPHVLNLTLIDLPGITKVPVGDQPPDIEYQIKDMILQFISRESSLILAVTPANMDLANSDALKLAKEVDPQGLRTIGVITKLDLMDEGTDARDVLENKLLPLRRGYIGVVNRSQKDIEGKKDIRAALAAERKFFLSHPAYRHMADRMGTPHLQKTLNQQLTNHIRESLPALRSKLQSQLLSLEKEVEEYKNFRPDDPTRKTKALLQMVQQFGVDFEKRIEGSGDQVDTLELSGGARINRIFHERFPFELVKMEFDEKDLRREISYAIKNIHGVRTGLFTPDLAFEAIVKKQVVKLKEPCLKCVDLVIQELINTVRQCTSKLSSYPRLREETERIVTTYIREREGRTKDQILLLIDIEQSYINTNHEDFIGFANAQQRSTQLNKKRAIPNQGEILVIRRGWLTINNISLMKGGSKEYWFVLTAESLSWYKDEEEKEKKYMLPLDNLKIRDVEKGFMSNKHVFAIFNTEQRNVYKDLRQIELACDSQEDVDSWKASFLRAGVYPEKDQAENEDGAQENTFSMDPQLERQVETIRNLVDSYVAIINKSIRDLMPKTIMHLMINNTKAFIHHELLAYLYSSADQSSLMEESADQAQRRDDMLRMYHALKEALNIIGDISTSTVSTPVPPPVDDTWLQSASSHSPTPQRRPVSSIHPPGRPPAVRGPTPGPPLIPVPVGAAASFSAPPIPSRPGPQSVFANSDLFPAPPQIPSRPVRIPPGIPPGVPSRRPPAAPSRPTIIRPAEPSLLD

pKd | Substance
6.57 | His-tagged human Bin1 isoform 8, CNM-associated mutant K436X (domain or fragment)
6.74 | His-tagged human Bin1 isoform 8, wild type (natural protein)
